Measurements from patent US20180360932A1 (OPKO BIOLOGICS, published 2018).

Biological target: Tissue factor (TF), P13726
Test: cell-based or functional assay

Tissue factor (TF), P13726, sequence (P13726 33-295): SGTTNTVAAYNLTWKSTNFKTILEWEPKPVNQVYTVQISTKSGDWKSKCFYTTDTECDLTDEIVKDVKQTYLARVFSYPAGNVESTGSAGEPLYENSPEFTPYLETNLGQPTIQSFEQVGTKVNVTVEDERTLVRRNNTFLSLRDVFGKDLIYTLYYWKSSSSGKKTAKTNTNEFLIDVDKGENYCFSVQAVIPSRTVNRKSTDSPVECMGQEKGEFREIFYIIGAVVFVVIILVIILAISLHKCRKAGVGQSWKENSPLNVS

B1: MOD-5014 (FVIIa-CTP3; activated Factor VII-CTP-CTP-CTP), P08709 61-212 (enzyme)
chain 1: ANAFLEELRPGSLERECKEEQCSFEEAREIFKDAERTKLFWISYSDGDQCASSPCQNGGSCKDQLQSYICFCLPAFEGRNCETHKDDQLICVNENGGCEQYCSDHTGTKRSCRCHEGYSLLADGVSCTPTVEYPCGKIPILEKRNASKPQGR
chain 2: IVGGKVCPKGECPWQVLLLVNGAQLCGGTLINTIWVVSAAHCFDKIKNWRNLIAVLGEHDLSEHDGDEQSRRVAQVIIPSTYVPGTTNHDIALLRLHQPVVLTDHVVPLCLPERTFSERTLAFVRFSLVSGWGQLLDRGATALELMVLNVPRLMTQDCLQQSRKVGDSPNITEYMFCAGYSDGSKDSCKGDSGGPHATHYRGTWYLTGIVSWGQGCATVGHFGVYTRVSQYIEWLQKLMRSEPRPGVLLRAPFPSSSSKAPPPSLPSPSRLPGPSDTPILPQSSSSKAPPPSLPSPSRLPGPSDTPILPQSSSSKAPPPSLPSPSRLPGPSDTPILPQ
modifications: here or on the partner: CTP units may be O-glycosylated (sites not given); gamma-carboxyglutamic acid (Gla) residues in the N-terminal region (positions not given)
  ETP (TG; MOD-5014 1.25 ug/ml + TF 0.5 pM; run 1): 264
  ETP (TG; MOD-5014 1.25 ug/ml + TF 1 pM; run 1): 484
  ETP (TG; MOD-5014 1.25 ug/ml + TF 2.5 pM; run 1): 1120
  ETP (TG; MOD-5014 1.25 ug/ml + TF 5 pM; run 1): 1600
  ETP (TG; MOD-5014 2.5 ug/ml + TF 0.5 pM; run 1): 245
  ETP (TG; MOD-5014 2.5 ug/ml + TF 0.5 pM; run 2): 317
  ETP (TG; MOD-5014 2.5 ug/ml + TF 1 pM; run 1): 448
  ETP (TG; MOD-5014 2.5 ug/ml + TF 1 pM; run 2): 760
  ETP (TG; MOD-5014 2.5 ug/ml + TF 2.5 pM; run 1): 1030
  ETP (TG; MOD-5014 2.5 ug/ml + TF 2.5 pM; run 2): 1110
  ETP (TG; MOD-5014 2.5 ug/ml + TF 5 pM; run 1): 1550
  ETP (TG; MOD-5014 2.5 ug/ml + TF 5 pM; run 2): 1600
  ETP (TG; MOD-5014 5 ug/ml + TF 0.5 pM; run 1): 344
  ETP (TG; MOD-5014 5 ug/ml + TF 1 pM; run 1): 490
  ETP (TG; MOD-5014 5 ug/ml + TF 2.5 pM; run 1): 982
  ETP (TG; MOD-5014 5 ug/ml + TF 5 pM; run 1): 1510
  ETP (TG; MOD-5014 10 ug/ml + TF 0.5 pM; run 2): 460
  ETP (TG; MOD-5014 10 ug/ml + TF 1 pM; run 2): 754
  ETP (TG; MOD-5014 10 ug/ml + TF 2.5 pM; run 2): 1060
  ETP (TG; MOD-5014 10 ug/ml + TF 5 pM; run 2): 1600
  ETP; thrombin generation in severe hemophilia A pooled plasma, MOD-5014 5 ug/kg (FIG. 83), TF 0.5 pM, run #2: 354
  ETP; thrombin generation in severe hemophilia A pooled plasma, MOD-5014 5 ug/kg (FIG. 83), TF 1 pM, run #2: 754
  ETP; thrombin generation in severe hemophilia A pooled plasma, MOD-5014 5 ug/kg (FIG. 83), TF 2.5 pM, run #2: 1010
  ETP; thrombin generation in severe hemophilia A pooled plasma, MOD-5014 5 ug/kg (FIG. 83), TF 5 pM, run #2: 1530
  Lag time (TG; MOD-5014 1.25 ug/ml + TF 0.5 pM; run 1): 4.67 min
  Lag time (TG; MOD-5014 1.25 ug/ml + TF 1 pM; run 1): 2.67 min
  Lag time (TG; MOD-5014 1.25 ug/ml + TF 2.5 pM; run 1): 2.33 min
  Lag time (TG; MOD-5014 1.25 ug/ml + TF 5 pM; run 1): 1.33 min
  Lag time (TG; MOD-5014 2.5 ug/ml + TF 0.5 pM; run 1): 6.67 min
  Lag time (TG; MOD-5014 2.5 ug/ml + TF 1 pM; run 1): 3 min
  Lag time (TG; MOD-5014 2.5 ug/ml + TF 1 pM; run 2): 3.33 min
  Lag time (TG; MOD-5014 2.5 ug/ml + TF 2.5 pM; run 1): 2.63 min
  Lag time (TG; MOD-5014 2.5 ug/ml + TF 2.5 pM; run 2): 2.67 min
  Lag time (TG; MOD-5014 2.5 ug/ml + TF 5 pM; run 1): 3.67 min
  Lag time (TG; MOD-5014 2.5 ug/ml + TF 5 pM; run 2): 1.67 min
  Lag time (TG; MOD-5014 5 ug/ml + TF 0.5 pM; run 1): 5.67 min
  Lag time (TG; MOD-5014 5 ug/ml + TF 1 pM; run 1): 3 min
  Lag time (TG; MOD-5014 5 ug/ml + TF 2.5 pM; run 1): 3 min
  Lag time (TG; MOD-5014 5 ug/ml + TF 5 pM; run 1): 1.67 min
  Lag time (TG; MOD-5014 10 ug/ml + TF 0.5 pM; run 2): 8.67 min
  Lag time (TG; MOD-5014 10 ug/ml + TF 2.5 pM; run 2): 3 min
  Lag time (TG; MOD-5014 10 ug/ml + TF 5 pM; run 2): 1.67 min
  Lag time; thrombin generation in severe hemophilia A pooled plasma, MOD-5014 5 ug/kg (FIG. 83), TF 0.5 pM, run #2: 7
  Lag time; thrombin generation in severe hemophilia A pooled plasma, MOD-5014 5 ug/kg (FIG. 83), TF 1 pM, run #2: 3.67
  Lag time; thrombin generation in severe hemophilia A pooled plasma, MOD-5014 5 ug/kg (FIG. 83), TF 2.5 pM, run #2: 2.67
  Lag time; thrombin generation in severe hemophilia A pooled plasma, MOD-5014 5 ug/kg (FIG. 83), TF 5 pM, run #2: 2
  Peak (TG; MOD-5014 1.25 ug/ml + TF 0.5 pM; run 1): 9.04
  Peak (TG; MOD-5014 1.25 ug/ml + TF 1 pM; run 1): 27.4
  Peak (TG; MOD-5014 1.25 ug/ml + TF 2.5 pM; run 1): 99.1
  Peak (TG; MOD-5014 1.25 ug/ml + TF 5 pM; run 1): 231
  Peak (TG; MOD-5014 2.5 ug/ml + TF 0.5 pM; run 1): 10.3
  Peak (TG; MOD-5014 2.5 ug/ml + TF 0.5 pM; run 2): 11.2
  Peak (TG; MOD-5014 2.5 ug/ml + TF 1 pM; run 1): 22.6
  Peak (TG; MOD-5014 2.5 ug/ml + TF 1 pM; run 2): 30.4
  Peak (TG; MOD-5014 2.5 ug/ml + TF 2.5 pM; run 1): 93.2
  Peak (TG; MOD-5014 2.5 ug/ml + TF 2.5 pM; run 2): 105
  Peak (TG; MOD-5014 2.5 ug/ml + TF 5 pM; run 1): 241
  Peak (TG; MOD-5014 2.5 ug/ml + TF 5 pM; run 2): 245
  Peak (TG; MOD-5014 5 ug/ml + TF 0.5 pM; run 1): 13.2
  Peak (TG; MOD-5014 5 ug/ml + TF 1 pM; run 1): 28.3
  Peak (TG; MOD-5014 5 ug/ml + TF 2.5 pM; run 1): 94.2
  Peak (TG; MOD-5014 5 ug/ml + TF 5 pM; run 1): 261
  Peak (TG; MOD-5014 10 ug/ml + TF 1 pM; run 2): 32.2
  Peak (TG; MOD-5014 10 ug/ml + TF 2.5 pM; run 2): 92.2
  Peak (TG; MOD-5014 10 ug/ml + TF 5 pM; run 2): 236
  Peak; thrombin generation in severe hemophilia A pooled plasma, MOD-5014 5 ug/kg (FIG. 83), TF 0.5 pM, run #2: 14.3
  Peak; thrombin generation in severe hemophilia A pooled plasma, MOD-5014 5 ug/kg (FIG. 83), TF 1 pM, run #2: 28.6
  Peak; thrombin generation in severe hemophilia A pooled plasma, MOD-5014 5 ug/kg (FIG. 83), TF 2.5 pM, run #2: 104
  Peak; thrombin generation in severe hemophilia A pooled plasma, MOD-5014 5 ug/kg (FIG. 83), TF 5 pM, run #2: 254
  StartTail (TG; MOD-5014 1.25 ug/ml + TF 0.5 pM; run 1): 75
  StartTail (TG; MOD-5014 1.25 ug/ml + TF 1 pM; run 1): 40
  StartTail (TG; MOD-5014 1.25 ug/ml + TF 2.5 pM; run 1): 33
  StartTail (TG; MOD-5014 1.25 ug/ml + TF 5 pM; run 1): 25
  StartTail (TG; MOD-5014 2.5 ug/ml + TF 0.5 pM; run 1): 64
  StartTail (TG; MOD-5014 2.5 ug/ml + TF 0.5 pM; run 2): 75
  StartTail (TG; MOD-5014 2.5 ug/ml + TF 1 pM; run 1): 56
  StartTail (TG; MOD-5014 2.5 ug/ml + TF 2.5 pM; run 1): 34
  StartTail (TG; MOD-5014 2.5 ug/ml + TF 2.5 pM; run 2): 31
  StartTail (TG; MOD-5014 2.5 ug/ml + TF 5 pM; run 1): 23
  StartTail (TG; MOD-5014 2.5 ug/ml + TF 5 pM; run 2): 24
  StartTail (TG; MOD-5014 5 ug/ml + TF 0.5 pM; run 1): 75
  StartTail (TG; MOD-5014 5 ug/ml + TF 1 pM; run 1): 50
  StartTail (TG; MOD-5014 5 ug/ml + TF 2.5 pM; run 1): 38
  StartTail (TG; MOD-5014 10 ug/ml + TF 0.5 pM; run 2): 72
  StartTail (TG; MOD-5014 10 ug/ml + TF 2.5 pM; run 2): 34
  StartTail (TG; MOD-5014 10 ug/ml + TF 5 pM; run 2): 25
  StartTail; thrombin generation in severe hemophilia A pooled plasma, MOD-5014 5 ug/kg (FIG. 83), TF 1 pM, run #2: 69
  StartTail; thrombin generation in severe hemophilia A pooled plasma, MOD-5014 5 ug/kg (FIG. 83), TF 2.5 pM, run #2: 30
  StartTail; thrombin generation in severe hemophilia A pooled plasma, MOD-5014 5 ug/kg (FIG. 83), TF 5 pM, run #2: 23
  tt Peak (TG; MOD-5014 1.25 ug/ml + TF 0.5 pM; run 1): 22.3
  tt Peak (TG; MOD-5014 1.25 ug/ml + TF 1 pM; run 1): 10.3
  tt Peak (TG; MOD-5014 1.25 ug/ml + TF 2.5 pM; run 1): 8
  tt Peak (TG; MOD-5014 1.25 ug/ml + TF 5 pM; run 1): 4.67
  tt Peak (TG; MOD-5014 2.5 ug/ml + TF 0.5 pM; run 1): 22
  tt Peak (TG; MOD-5014 2.5 ug/ml + TF 2.5 pM; run 1): 8.35
  tt Peak (TG; MOD-5014 2.5 ug/ml + TF 2.5 pM; run 2): 8.33
  tt Peak (TG; MOD-5014 2.5 ug/ml + TF 5 pM; run 2): 4.67
  tt Peak (TG; MOD-5014 5 ug/ml + TF 0.5 pM; run 1): 21.3
  tt Peak (TG; MOD-5014 5 ug/ml + TF 1 pM; run 1): 10.7
  tt Peak (TG; MOD-5014 5 ug/ml + TF 2.5 pM; run 1): 8.33
  tt Peak (TG; MOD-5014 5 ug/ml + TF 5 pM; run 1): 4.67
  tt Peak (TG; MOD-5014 10 ug/ml + TF 1 pM; run 2): 33.7
  tt Peak (TG; MOD-5014 10 ug/ml + TF 2.5 pM; run 2): 8.67
  tt Peak; thrombin generation in severe hemophilia A pooled plasma, MOD-5014 5 ug/kg (FIG. 83), TF 0.5 pM, run #2: 21.3
  tt Peak; thrombin generation in severe hemophilia A pooled plasma, MOD-5014 5 ug/kg (FIG. 83), TF 1 pM, run #2: 12.3
  tt Peak; thrombin generation in severe hemophilia A pooled plasma, MOD-5014 5 ug/kg (FIG. 83), TF 2.5 pM, run #2: 7.67
  tt Peak; thrombin generation in severe hemophilia A pooled plasma, MOD-5014 5 ug/kg (FIG. 83), TF 5 pM, run #2: 4.67
